{"source": "paper PMC11065870", "proteins": {"B1": {"name": "4F2hc (4F2 cell-surface antigen heavy chain): neuraminidase (desialylated) (protein)", "parent chain": "MELQPPEASIAVVSIPRQLPGSHSEAGVQGLSAGDDSELGSHCVAQTGLELLASGDPLPSASQNAEMIETGSDCVTQAGLQLLASSDPPALASKNAEVTGTMSQDTEVDMKEVELNELEPEKQPMNAASGAAMSLAGAEKNGLVKIKVAEDEAEAAAAAKFTGLSKEELLKVAGSPGWVRTRWALLLLFWLGWLGMLAGAVVIIVRAPRCRELPAQKWWHTGALYRIGDLQAFQGHGAGNLAGLKGRLDYLSSLKVKGLVLGPIHKNQKDDVAQTDLLQIDPNFGSKEDFDSLLQSAKKKSIRVILDLTPNYRGENSWFSTQVDTVATKVKDALEFWLQAGVDGFQVRDIENLKDASSFLAEWQNITKGFSEDRLLIAGTNSSDLQQILSLLESNKDLLLTSSYLSDSGSTGEHTKSLVTQYLNATGNRWCSWSLSQARLLTSFLPAQLLRLYQLMLFTLPGTPVFSYGDEIGLDAAALPGQPMEAPVMLWDESSFPDIPGAVSANMTVKGQSEDPGSLLSLFRRLSDQRSKERSLLHGDFHAFSAGPGLFSYIRHWDQNERFLVVLNFGDVGLSAGLQASDLPASASLPAKADLLLSTQPGREEGSPLELERLKLEPHEGLLLRFPYAA"}}, "key": {"[1]": {"test": "mass photometry in GDN, super-dimer/heterodimer ratio", "conditions": "glycan changed form; control: fully sialylated WT"}, "[2]": {"test": "native MS, super-dimer vs heterodimer abundance", "conditions": "glycan changed form; control: fully glycosylated WT"}}}
{"protein": "B1", "values": [{"measurement": "oligomerisation", "setting": "[1]", "result": "decreases"}, {"measurement": "oligomerisation", "setting": "[2]", "result": "decreases"}]}
